According to patent US20180016324A1 (Regeneron, published 2018):
Substitutions are numbered along the chain they refer to.

B1: H4H25592P (antibody, V domains shown)
VH: QVQLVESGGGVVQPGRSLRLSCAASGFTFSYSGMHWVRQAPGKGLEWVAVISYDGSNKYYADSVKGRFTISRDNSNNILYLQMNSLRAEDTAVYYCAKDWGGRFDPWGQGTLVTVSS
VL: DIQMTQSPSSLSASVGDRVTITCRASQGISSYLAWYQQIPGKVPKLLIYAASTLHSGVPSRFSGSGSGTDFTLTISSLQPADVATYYCQKYNSAPLTFGGGTKVEIK
B2: H4H25641P (antibody, V domains shown)
VH: B1 VH with S32Y, G55A, K58N, A61V, N76K, I78T, W100Y, P106Y
VL: EIVLTQSPGTLSLSPGERATLSCGASQSVSSYLAWYQQKPGQTPRLLIYGASSRATGIPDRFSGSGSGTDFTLTISRLEPEDFAVYYCQQYGSSPWTFGQGTKVEIK
B3: H4H25640P (antibody, V domains shown)
VH: B1 VH with S32Y, S52L, Y59F, A61S, N76R, I78T, A88L, W100Y, P106Y
VL: EIVLTQSPGTLSLSSGERATLSCRASQSVSNKYLAWYQQKPGQVPRLLIYGASNRATGIPDRFSGSGSGTDFTLTINRLEPEDFAVFYCQQYGSTPSTFGQGTKVEIK
B4: H4H25617P (antibody, V domains shown)
VH: EVQLVESGGGLVQPGGSLRLSCSASGFTFTTYAMSWVRQAPGRGLEWVSSISGTGVSTYYADSVKGRFTISRDNSKNALYLQMNSLTAEDTAVYYCAKDSGTYHWGQGTLVTVSS
VL: EIVLTQSPATLSLSPGERATLSCRASQSVDSYLAWYQQKPGQAPRLLIYDASNRATGIPARFSGSGSGTDFTLTISSLESEDFAVYYCQQRRNWPQFTFGGGTKVEIK
B5: H4H25598P (antibody, V domains shown)
VH: EVQLVESGGGLVQPGGSLRLSCAASGFTVSSNYMSWVRQAPGSGLEWVSVIYSGGITHYIGSVKGRFTISRHNSKNTLYLQMNSLRAEDTAMYYCARERYSGITGNPYGFDFWGQGTMVTVSS
VL: DIQLTQSPSFLSASVGDRVTITCWASQDISSYLAWYQQKPGIAPKLLIYSASTLQSGVPSSFSGSGSGTEFTLTISSLQPEDFATYYCQQLNIYPFTFGPGTKVDIK
B6: H4H25602P (antibody, V domains shown)
VH: B5 VH with I60V, G61D, F112I
VL: B5 VL with S50A, S61R
B7: H4H25622P (antibody, V domains shown)
VH: QVQLVESGGGVVQPGRSLRLSCAASGFTFSSYGMHWVRQAPGKGLEWLAIIWYDGTNKQYVDSVKGRFTISRDNSKNTLYLQLNSLRAEDTAVYYCARQDFYYYYGMDVWGQGTTVTVSS
VL: not shown
B8: H4H25637P (antibody, V domains shown)
VH: QLQLQESGPGLVKPSETLSLTCTVSGDSISSSNYFWGWIRQPPGKGLEWIGNIYYSGDTYYNPSLKSRVTMSVDTSKKQFSLKLRSVTAADTAVYYCARGRPYYDFWSGYFDYWGQGTLVTVSS
VL: EIVLTQSPGTLSLSPGERATLPCRASQSVSSSYLAWYQQKPGQAPRLLIYGASSRATGIPDRFRGSGSGTDFTLTISRLEPEDFAVYYCQQYGTAPWTFGQGTKVEIK

biological target: T1, ZIKV (prM80E) with a C-terminal myc-myc-hexahistidine tag (Zika virus, UniProt A0A024B7W1 104-694); experiment: SPR, mAb captured, 25C
T1 construct: also called ZIKV (prM80E)-mmH; ZIKV-mmH

Binder | Kd [pM] | koff [s⁻¹] | kon [M⁻¹ s⁻¹] | t½ [min]
B1 | 502 | 0.000676 | 1.35e+06 | 17.1
B2 | 8750 | 0.00922 | 1.05e+06 | 1.3
B3 | 597 | 0.000722 | 1.21e+06 | 16
B4 | 7900 | 0.00197 | 250000 | 5.9
B5 | 156 | 4.49e-05 | 289000 | 257
B6 | 70 | 1.95e-05 | 286000 | 592
B7 | 5310 | 0.00133 | 251000 | 8.7
B8 | 6330 | 0.00391 | 617000 | 3

biological target: T1, ZIKV (prM80E) with a C-terminal …; experiment: SPR, mAb captured, 37C, pH 5.0 chase

Binder | koff [s⁻¹] | t½ [min]
B1 | 0.00658 | 1.8
B2 | 0.0133 | 0.9
B3 | 0.00337 | 3.4
B4 | 0.00464 | 2.5
B5 | 0.114 | 0.1
B6 | 0.097 | 0.1
B7 | 0.000704 | 16.4
B8 | 0.00228 | 5.1

biological target: T2, ZIKV prM/E polyprotein on virus-like particles (VLPs) from HEK293T/17 cells (Zika virus, UniProt A0A024B7W1 123-795); experiment: MSD ECL, VLPs on plate; high concentrations excluded from fit
T2 construct: also called ZIKV prM/E VLPs; Zika prM/E VLPs

Binder | EC50 [pM]
B3 | 102

biological target: T1, ZIKV (prM80E) with a C-terminal …; experiment: SPR, mAb captured, 37C

Binder | t½ pH 7.4/t½ pH 6.0
B1 | 2.9
B2 | 0.8
B3 | 1.9
B4 | 0.8
B5 | 32.4
B6 | 34.1
B7 | 0.7
B8 | 0.3

biological target: T1, ZIKV (prM80E) with a C-terminal …; experiment: SPR, mAb captured, 37C, pH 7.4

Binder | koff [s⁻¹] | t½ [min]
B1 | 0.00174 | 6.63
B2 | 0.0191 | 0.61
B3 | 0.00172 | 6.72
B4 | 0.00602 | 1.92
B5 | 0.000397 | 29.1
B6 | 0.000356 | 32.5
B7 | 0.00318 | 3.63
B8 | 0.0118 | 0.98

biological target: T2, ZIKV prM/E polyprotein on virus-like …; experiment: MSD ECL, VLPs on plate

Binder | EC50 [pM]
B1 | 213
B2 | 2870
B4 | 755
B5 | 426
B6 | 1560
B7 | 2440
B8 | 322

biological target: T1, ZIKV (prM80E) with a C-terminal …; experiment: SPR, mAb captured, 37C; remark: another data set of the same source

Binder | t½ pH 7.4/t½ pH 5.0 | t½ pH 7.4/t½ pH 5.5
B1 | 3.8 | 4.2
B2 | 0.7 | 1.1
B3 | 2 | 2.3
B4 | 0.8 | 0.8
B5 | 288 | 187
B6 | 272 | 134
B7 | 0.2 | 0.6
B8 | 0.2 | 0.4

biological target: T1, ZIKV (prM80E) with a C-terminal …; experiment: SPR, mAb captured, 37C, pH 6.0 chase

Binder | koff [s⁻¹] | t½ [min]
B1 | 0.00503 | 2.3
B2 | 0.0159 | 0.73
B3 | 0.00323 | 3.58
B4 | 0.00494 | 2.34
B5 | 0.0129 | 0.9
B6 | 0.0122 | 0.95
B7 | 0.00234 | 4.93
B8 | 0.00392 | 2.95

biological target: T1, ZIKV (prM80E) with a C-terminal …; experiment: SPR, mAb captured, 37C; remark: another data set of the same source

Binder | Kd [pM] | koff [s⁻¹] | kon [M⁻¹ s⁻¹] | t½ [min]
B1 | 1020 | 0.00165 | 1.61e+06 | 7
B2 | 11900 | 0.0188 | 1.59e+06 | 0.6
B3 | 1270 | 0.00186 | 1.47e+06 | 6.2
B4 | 16100 | 0.00729 | 452000 | 1.6
B5 | 700 | 0.000284 | 406000 | 40.7
B6 | 745 | 0.000284 | 381000 | 40.6
B7 | 9070 | 0.00267 | 295000 | 4.3
B8 | 9970 | 0.00989 | 992000 | 1.2

biological target: ZIKV envelope glycoprotein (E) of strain PRVABC59 (Puerto Rico 2015) (Zika virus); experiment: cell-based or functional assay

Binder | neutralization IC50, Vero cells [pM]
B1 | 218
B2 | 356
B3 | 166
B4 | 543
B5 | 398
B6 | 501
B7 | 1280
B8 | 239

biological target: ZIKV envelope glycoprotein (E) of strain MR766 (Uganda 1947) (Zika virus, UniProt Q32ZE1 291-790); experiment: cell-based or functional assay

Binder | neutralization IC50, Vero cells [pM]
B1 | 42.6
B2 | 37.1
B3 | 27.9
B4 | 166
B5 | 54.5
B6 | 53.1
B7 | 188
B8 | 67.1

biological target: ZIKV envelope glycoprotein (E) of strain FLR (Colombia 2015) (Zika virus); experiment: cell-based or functional assay

Binder | neutralization IC50, Vero cells [pM]
B1 | 553
B2 | 212
B3 | 99
B4 | 552
B5 | 553
B6 | 630
B7 | 1580
B8 | 134

biological target: T1, ZIKV (prM80E) with a C-terminal …; experiment: SPR, mAb captured, 37C, pH 5.5 chase

Binder | koff [s⁻¹] | t½ [min]
B1 | 0.00736 | 1.57
B2 | 0.0204 | 0.57
B3 | 0.00402 | 2.87
B4 | 0.00465 | 2.48
B5 | 0.0741 | 0.16
B6 | 0.0476 | 0.24
B7 | 0.00178 | 6.49
B8 | 0.00414 | 2.79
